From US20170002055A1, “Novel peptides and combination of peptides for use in immunotherapy against ovarian cancer and other cancers” (immatics biotechnologies GmbH, priority 2015, published 2017)

Columns and labels:
CD8+ T cells = test: In vitro immunogenicity: priming of CD8+ T cells with artificial APCs loaded with peptide/MHC and anti-CD28, multimer readout; format: cell-based, human; settings: for Wells positive [%]: HLA-A*02 restricted peptides, percentage of positive wells; for donors: HLA-A*02, percentage of positive donors; for wells: HLA-A*02, percentage of positive wells
Description: In order to obtain information regarding the immunogenicity of the TUMAPs of the present invention, the inventors performed investigations using an in vitro T-cell priming assay based on repeated stimulations of CD8+ T cells with artificial antigen presenting cells (aAPCs) loaded with peptide/MHC complexes and anti-CD28 antibody.
In order to perform in vitro stimulations by artificial antigen presenting cells loaded with peptide-MHC complex (pMHC) and anti-CD28 antibody, the inventors first isolated CD8+ T cells from fresh HLA-A*02 leukapheresis products via positive selection using CD8 microbeads (Miltenyi Biotec, Bergisch-Gladbach, Germany) of healthy donors obtained from the University clinics Mannheim, Germany, after informed consent.
PBMCs and isolated CD8+ lymphocytes were incubated in T-cell medium (TCM) until use consisting of RPMI-Glutamax (Invitrogen, Karlsruhe, Germany) supplemented with 10% heat inactivated human AB serum (PAN-Biotech, Aidenbach, Germany), 100 U/ml Penicillin/100 μg/ml Streptomycin (Cambrex, Cologne, Germany), 1 mM sodium pyruvate (CC Pro, Oberdorla, Germany), 20 μg/ml Gentamycin (Cambrex). 2.5 ng/ml IL-7 (PromoCell, Heidelberg, Germany) and 10 U/ml IL-2 (Novartis Pharma, Nürnberg, Germany) were also added to the TCM at this step.
Generation of pMHC/anti-CD28 coated beads, T-cell stimulations and readout was performed in a highly defined in vitro system using four different pMHC molecules per stimulation condition and 8 different pMHC molecules per readout condition.
The purified co-stimulatory mouse IgG2a anti human CD28 Ab 9.3 (Jung et al., 1987) was chemically biotinylated using Sulfo-N-hydroxysuccinimidobiotin as recommended by the manufacturer (Perbio, Bonn, Germany). Beads used were 5.6 μm diameter streptavidin coated polystyrene particles (Bangs Laboratories, Illinois, USA).
pMHC used for positive and negative control stimulations were A*0201/MLA-001 (peptide […] (SEQ ID NO. 664) from modified Melan-A/MART-1) and A*0201/DDX5-001 ([…] from DDX5, SEQ ID NO. 665), respectively.
800.000 beads/200 μl were coated in 96-well plates in the presence of 4×12.5 ng different biotin-pMHC, washed and 600 ng biotin anti-CD28 were added subsequently in a volume of 200 μl. Stimulations were initiated in 96-well plates by co-incubating […] CD8+ T cells with 2×10^5 washed coated beads in 200 μl TCM supplemented with 5 ng/ml IL-12 (PromoCell) for 3 days at 37° C. Half of the medium was then exchanged by fresh TCM supplemented with 80 U/ml IL-2 and incubating was continued for 4 days at 37° C. This stimulation cycle was performed for a total of three times. For the pMHC multimer readout using 8 different pMHC molecules per condition, a two-dimensional combinatorial coding approach was used as previously described (Andersen et al., 2012) with minor modifications encompassing coupling to 5 different fluorochromes. Finally, multimeric analyses were performed by staining the cells with Live/dead near IR dye (Invitrogen, Karlsruhe, Germany), CD8-FITC antibody clone SK1 (BD, Heidelberg, Germany) and fluorescent pMHC multimers. For analysis, a BD LSRII SORP cytometer equipped with appropriate lasers and filters was used. Peptide specific cells were calculated as percentage of total CD8+ cells. Evaluation of multimeric analysis was done using the FlowJo software (Tree Star, Oregon, USA). In vitro priming of specific multimer+ CD8+ lymphocytes was detected by comparing to negative control stimulations.

HLA-A*02:01 = HLA-A*02:01 (Homo sapiens, UniProt P04439, D140Y/D185E/D98H/E176V/E277Q/G131W/G231S/I119V/I121R/I166T/I218V/L300P/L318F/N151K/N90K/P208A/P217A/Q86G/Q94H/R138H/R169H/T345S); test: MHC binding assay (UV-ligand exchange, β2m ELISA, peptide exchange yield); settings: MHC class I binding score; binding to HLA-A*02:01 ranged by peptide exchange yield (UV-ligand exchange, β2m ELISA)
In short: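 Peptide–HLA-A*02:01 complexes were formed by UV-mediated exchange of a UV-cleavable ligand for the test peptide. Exchange yield was measured by capturing complexes on streptavidin, detecting with HRP anti-β2m antibody (1 h, 37°C) and reading TMB absorbance at 450 nm.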

| Substance | Peptide exchange (HLA-A*02:01) | Wells positive [%] (CD8+ T cells) | donors (CD8+ T cells) | wells (CD8+ T cells) |
| --- | --- | --- | --- | --- |
| 5 (HLTEVYPEL; listed as Homo sapiens) [compound 5] | “+++” (≧50 = +++) | “+++” (50%-69% = +++) |  |  |
| 36 (YVLEDLEVTV; listed as Homo sapiens) [compound 36] | “++” (≧20% = ++) | “+” (<20% = +) |  |  |
| 48 (ALAELYEDEV; listed as Homo sapiens) [compound 48] | “+++” (≧50 = +++) | “+” (<20% = +) |  |  |
| 60 (SLTIDGIYYV; listed as Homo sapiens) [compound 60] | “++++” (≧75% = ++++) | “++++” (> = 70% = ++++) |  |  |
| 108 (ALFPGVALLLA; listed as Homo sapiens) [compound 108] | “++++” (≧75% = ++++) | “++” (20%-49% = ++) |  |  |
| 113 (GLLPTPLFGV; listed as Homo sapiens) [compound 113] | “+++” (≧50 = +++) | “+” (<20% = +) |  |  |
| 141 (YLDFSNNRL; listed as Homo sapiens) [compound 141] | “++” (≧20% = ++) | “+” (<20% = +) |  |  |
| 605 (KLYEAVPQL; listed as Homo sapiens) [compound 605] | “+++” (≧50 = +++) |  |  |  |
| 606 (ALWETEVYI; listed as Homo sapiens) [compound 606] | “+++” (≧50 = +++) |  |  |  |
| 613 (RLLPPGAVVAV; listed as Homo sapiens) [compound 613] | “+++” (≧50 = +++) |  |  |  |
| 618 (VLFDSESIGIYV; listed as Homo sapiens) [compound 618] | “+++” (≧50 = +++) |  |  |  |
| 620 (KLLNKIYEA; listed as Homo sapiens) [compound 620] | “++++” (≧75% = ++++) |  |  |  |
| 622 (RLLGEEVVRVLQA; listed as Homo sapiens) [compound 622] | “+++” (≧50 = +++) |  |  |  |
| 623 (YLVEDIQHI; listed as Homo sapiens) [compound 623] | “+++” (≧50 = +++) |  |  |  |
| 635 (SLDSTLHAV; listed as Homo sapiens) [compound 635] | “+++” (≧50 = +++) |  |  |  |
| 648 (LLWGNAIFL; listed as Homo sapiens) [compound 648] |  |  | +++ (50%-69 = +++) | ++ (20%-49% = ++) |
| 652 (TLWYRAPEV; listed as Homo sapiens) [compound 652] |  |  | ++++ (> = 70% = ++++) | +++ (50%-69 = +++) |
| 659 (ILFPDIIARA; listed as Homo sapiens) [compound 659] |  |  | +++ (50%-69 = +++) | + (<20% = +) |
| 662 (KIQEILTQV; listed as Homo sapiens) [compound 662] |  |  | +++ (50%-69 = +++) | + (<20% = +) |
| 663 (KIQEMQHFL; listed as Homo sapiens) [compound 663] |  |  | +++ (50%-69 = +++) | + (<20% = +) |

Further lines, with some results ahead:

| Peptide exchange (HLA-A*02:01) | Substance | Wells positive [%] (CD8+ T cells) | donors (CD8+ T cells) | wells (CD8+ T cells) |
| --- | --- | --- | --- | --- |
| “+++” (≧50 = +++) | 2 (SLLEADPFL; listed as Homo sapiens) [compound 2] | “+” (<20% = +) |  |  |
| “++++” (≧75% = ++++) | 3 (SLASKLTTL; listed as Homo sapiens) [compound 3] | “+” (<20% = +) |  |  |
| “++++” (≧75% = ++++) | 7 (SLVGLLLYL; listed as Homo sapiens) [compound 7] | “++” (20%-49% = ++) |  |  |
| “++++” (≧75% = ++++) | 8 (FTLGNVVGMYL; listed as Homo sapiens) [compound 8] | “+” (<20% = +) |  |  |
| “+++” (≧50 = +++) | 11 (KIFEMLEGV; listed as Homo sapiens) [compound 11] | “+” (<20% = +) |  |  |
| “+++” (≧50 = +++) | 17 (GLLPGDRLVSV; listed as Homo sapiens) [compound 17] | “++” (20%-49% = ++) |  |  |
| “++++” (≧75% = ++++) | 19 (FMVDNEAIYDI; listed as Homo sapiens) [compound 19] | “++” (20%-49% = ++) |  |  |
| “+++” (≧50 = +++) | 38 (FLLEDDIHVS; listed as Homo sapiens) [compound 38] | “+” (<20% = +) |  |  |
| “+++” (≧50 = +++) | 40 (TLLVKVFSV; listed as Homo sapiens) [compound 40] | “++” (20%-49% = ++) |  |  |
| “+++” (≧50 = +++) | 49 (YLPAVFEEV; listed as Homo sapiens) [compound 49] | “++” (20%-49% = ++) |  |  |
| “++++” (≧75% = ++++) | 56 (KLYEGIPVLL; listed as Homo sapiens) [compound 56] | “+” (<20% = +) |  |  |
| “++++” (≧75% = ++++) | 61 (FLQGYQLHL; listed as Homo sapiens) [compound 61] | “++” (20%-49% = ++) |  |  |
| “+++” (≧50 = +++) | 79 (SLFIGEKAVLL; listed as Homo sapiens) [compound 79] | “+” (<20% = +) |  |  |
| “+++” (≧50 = +++) | 118 (KLIDNNINV; listed as Homo sapiens) [compound 118] | “+” (<20% = +) |  |  |
| “+++” (≧50 = +++) | 601 (SAFPFPVTV; listed as Homo sapiens) [compound 601] |  |  |  |
| “++++” (≧75% = ++++) | 602 (YLLEQIKLIEV; listed as Homo sapiens) [compound 602] |  |  |  |
| “+++” (≧50 = +++) | 604 (SILDRDDIFV; listed as Homo sapiens) [compound 604] |  |  |  |
| “+++” (≧50 = +++) | 607 (RLYSGISGLEL; listed as Homo sapiens) [compound 607] |  |  |  |
| “+++” (≧50 = +++) | 608 (SLLSVSHAL; listed as Homo sapiens) [compound 608] |  |  |  |
| “+++” (≧50 = +++) | 609 (ALWKQLLEL; listed as Homo sapiens) [compound 609] |  |  |  |
| “+++” (≧50 = +++) | 610 (LLAPTPYIIGV; listed as Homo sapiens) [compound 610] |  |  |  |
| “++++” (≧75% = ++++) | 611 (YLLDDGTLVV; listed as Homo sapiens) [compound 611] |  |  |  |
| “+++” (≧50 = +++) | 612 (YLYNEGLSV; listed as Homo sapiens) [compound 612] |  |  |  |
| “+++” (≧50 = +++) | 614 (LLLPDQPPYHL; listed as Homo sapiens) [compound 614] |  |  |  |
| “++” (≧20% = ++) | 615 (VLPPDTDPA; listed as Homo sapiens) [compound 615] |  |  |  |
| “+++” (≧50 = +++) | 616 (VLIDEVESL; listed as Homo sapiens) [compound 616] |  |  |  |
| “+++” (≧50 = +++) | 617 (ALMYESEKVGV; listed as Homo sapiens) [compound 617] |  |  |  |
| “+++” (≧50 = +++) | 619 (ALQDRVPLA; listed as Homo sapiens) [compound 619] |  |  |  |
| “++++” (≧75% = ++++) | 621 (VLMDRLPSLL; listed as Homo sapiens) [compound 621] |  |  |  |
